This is an account of results in patent US20210395345A1.

What all share (assay): cell-based or functional assay
Assay [1] concerns the target SARS-CoV-2 spike protein with V445A (SARS-CoV-2) (UniProt P0DTC2).
In assay [2] the target is SARS-CoV-2 spike protein with K444T (SARS-CoV-2) (UniProt P0DTC2).
The target of assay [3] is SARS-CoV-2 spike protein with N439K (SARS-CoV-2) (UniProt P0DTC2).
For assay [4], the target named is SARS-CoV-2 spike protein with K444Q (SARS-CoV-2) (UniProt P0DTC2).
Assay [5] deals with SARS-CoV-2 spike protein with K444N (SARS-CoV-2) (UniProt P0DTC2).

On to mAb10987 (antibody), for which the reduced susceptibility (fold; neutralization) in assay [1] is 548 fold; in assay [2], over 1030 fold; in assay [4] it was over 548 fold; in assay [5], over 755 fold. In assay [3], this substance came in with a reduced susceptibility (fold; neutralization assays using pseudotyped VSV) of 463 fold.
